In assay [1] the target is T1, enriched paired helical filament tau protein (ePHF) (human, phosphorylated residues of pathological tau, sites not stated). The assay is described as follows: follow up analysis, method not stated.
Assay [2] has as its target T1, enriched paired helical filament tau …. The assay is described as follows: direct ELISA. The procedure:
Variable domain nucleic acid sequences from antibodies obtained from immunizations described above were used to prepare recombinant mouse IgG antibodies. These candidate antibodies were analyzed for binding to ePHF and specificity for ePHF over wild type tau by direct ELISA.
For direct ePHF and wildtype tau ELISA, plates were first coated with ePHF or wild type tau. Antigen solutions were prepared in PBS and 50 μL were pipetted into each well. Plates were covered and incubated for one hour at 37° C. or overnight at 4° C. Plates were then washed and blocked by addition of 150 μl of blocking buffer to each well and incubated one hour at room temperature. Plates were then washed before addition of serially diluted candidate antibody samples prepared in blocking buffer. Detection of candidate antibody binding was carried out by washing plates and adding a solution of enzyme-labeled secondary antibody in blocking buffer to each well. Secondary antibody binding was detected by addition of substrate and spectrophotometric analysis of resulting reaction product.
A general note: ELISA stands for enzyme-linked immunosorbent assay.

A further assay concerns the target iPHF (Homo sapiens (Human), UniProt P10636-8). Description: Octet, antibody on biosensor tips. The protocol: Anti-human tau antibodies were assessed for affinity for iPHF by Octet (ForteBio, Menlo Park, CA) analysis. Recombinant mouse IgG antibodies were prepared with clone-specific variable domain pairs selected from those presented in Table 3 and mouse IgG1 constant domains. Candidate antibodies were immobilized on biosensor tips (ForteBio) in kinetic buffer (ForteBio). Biosensor tips were then washed before introduction of a solution of iPHF in kinetic buffer for analysis of association and dissociation with candidate antibodies. Affinity measurements (K_D) were obtained using Data Analysis HT version 11.1 and corrected for background and high-frequency noise.
Background: Biolayer interferometry detects binding as a change in optical thickness at a sensor tip.

In assay [3] the target is T2, peptides corresponding with residues 413-430 of human tau (human, also: biotin, position not given here, phosphorylated residues, sites not given here).
T2 peptide: STGSIDMVDSPQLATLAD
Description: Pepscan biotinylated peptides, BLI or colorimetric detection. The procedure:
(§1) Recombinant mouse IgG antibodies were prepared with clone-specific variable domain pairs selected from those presented in Table 3 and mouse IgG1 constant domains. Epitope analysis was carried out with different anti-tau antibodies using a peptide scanning approach (e.g., see Verelst, J. et al. Front Mol Biosci. 2020 Mar. 31; 7:48). Libraries of overlapping synthetic biotinylated peptides corresponding to phosphorylated human tau (Pepscan, Lelystad, NL) were obtained and used to coat assay plate wells, each with individual library members. Recombinant mouse IgG antibodies were prepared with clone-specific variable domain pairs selected from those presented in Table 3 and mouse IgG1 constant domains. Antibody binding to peptides in each well was analyzed using colorimetric detection of peptide-antibody complexes with labeled secondary antibody or by associating biotinylated peptides with streptavidin coated biosensors in assay wells and assessing antibody binding by bio-layer interferometry (BLI)-based detection.

Assay [4] deals with T3, residues 223-238 of human tau (human, also: biotin, site not given here, phosphorylated residues, sites not given here).
T3 peptide: PKKVAVVRTPPKSPSS
The assay is described as above. The protocol: as §1

In assay [5] the target is T4, residues 383-400 of human tau (human, also: biotin, site not given here, phosphorylated residues, sites not given here).
T4 peptide: KAKTDHGAEIVYKSPVVS
The assay is described as above. The protocol:
as §1

In assay [6] the target is T5, residues 175-191 of human tau (human, also: biotin, site not given here, phosphorylated residues, sites not given here).
T5 peptide: TPPAPKTPPSSGEPPKS
The description is as above. The protocol:
as §1

Assay [7] addresses T6, residues 57-72 of human tau (human, also: biotin, site not given here, phosphorylated residues, sites not given here).
T6 peptide: EEPGSETSDAKSTPTA
The assay is described as above. The procedure:
as §1

No end group written: not given here. Where only a bound is given, the exact number is not on record here.

The values that follow come from patent US12709641B2, “Tau binding compounds” (VOYAGER THERAPEUTICS, INC., dated 2026).

B1: V0022 (antibody, V domains shown)
VH: QVQLQQPGTELVKPGSSVNLSCKASGFTFTRYWMHWVKERPGHGLEWIGNINPNNGGTDFNEKFKNKATLTVHKSSTTVFIQLSSLTSEDSAVYYCARGTGTGAMDYWGQGTSVTVSS
VL: DVVMTQTPLSLPVSLGDQASISCRSSQSLVHNNGITYLYWYLQKPGQSPKLLIYRVSNRFSGVPDRFGGSGSGTDFTLKISRVEAEDLGVYFCFQGTHVPRTFGGGTKLEIK
The EC50 is the concentration that produces a half-maximal response. A word on the Kd: it is a measure of binding affinity in units of concentration. Lower therefore signals a tighter complex. As to B1, the “selectivity for ePHF over wild type tau” value in assay [1] is over 100 fold. Moreover, the EC50 in assay [2] came out at 0.07 nM. Moreover, the Kd was 0.3 nM in the assay with iPHF and 0.306 nM in assay [3].

B2: V0023 (antibody, V domains shown)
VH: QVQLQQPGTELVKPGASVKLSCKASGYTFTIFWMHWVKQRPGHGLEWIGKINPNNGGGDYNEKFKSKATLTVDKSSTTAYLQLSSLTSEDSAVYYCARGTGTGAMDYWGQGTSVTVSS
VL: DVVMTQTPLSLPVSLGDHASISCRSSQSLVHSNGITHLYWYLQRPGQTPKLLIYRVSNRFSGVPDRFSGSGSGTDFTLKISSVEAEDLGVYFCFQGTHVPRTFGGGTKLEIE
For the molecule B2, in assay [1], the “selectivity for ePHF over wild type tau” value was over 100 fold. This molecule displayed an EC50 in assay [2] of 0.11 nM. In addition, the Kd with iPHF was determined as 4 nM; in assay [3], 0.207 nM.

B3: V0024 (antibody, V domains shown)
VH: QVQLQQPGTELVKPGASVKLSCKASGYTFTRFWMHWVKQRPGQGLEWIGNINPNNGGTDNNERFKSKATLTVDRSSSTAYMQLSSLTSEDSAVYYCARGTGTGAMDYWGQGTSVTVSS
VL: DVVMTQTPLSLPVSLGDQASISCRSSQSLVHSNGNTHLYWYLQKPGQSPKLLIYRVSSRFSGVPDRFSGSGSGTDFTLKISRVEAEDLGVYFCFQGTHVPRTFGGGTKLEIK
B3 yielded a Kd in assay [3] of 0.225 nM. That is a sub-nanomolar value.

B4: V0052 (antibody, V domains shown)
VH: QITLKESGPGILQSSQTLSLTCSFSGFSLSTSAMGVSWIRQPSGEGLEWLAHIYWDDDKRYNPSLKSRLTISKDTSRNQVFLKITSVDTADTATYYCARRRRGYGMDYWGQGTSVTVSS
VL: SIVMTQTPKFLLVSAGDRVTITCKASQSVSNDVAWYQQKPGQSPKLLIYYASNRCTGVPDRFTGSGYGTDFTFTISTVQAEDLAVYFCQQDYRSPLTFGAGTKLELK
Take B4: the “selectivity for ePHF over wild type tau” value in assay [1] is over 100 fold. Also, the Kd was determined as 0.6 nM in the assay with iPHF; 2.08 nM in assay [4]; 12.6 nM in assay [5]; 7.24 nM in assay [6]; 14 nM in assay [7].
